From publication PMC9884275, “Metamorphism in TDP-43 prion-like domain determines chaperone recognition” (Nature Communications, 2023)

Assays:
Conditions in all cases: both partners purified
DNAJC7 = target: T1, DNAJC7 (human, UniProt Q99615 1-494); assay: NMR titration; 15N-HSQC at 15 °C, 800 MHz; 25–35 μM 15N/13C-labelled PLD with HSP72 and a JDP at 1:2:2 molar ratio (PLD:HSP70:co-chaperone), NMR buffer with 10 mM DTT
T1 construct: DNAJC7, human, cDNA cloned into pET28a (GenScript); also called HSP40 (class C JDP)
T1 sequence (looked up): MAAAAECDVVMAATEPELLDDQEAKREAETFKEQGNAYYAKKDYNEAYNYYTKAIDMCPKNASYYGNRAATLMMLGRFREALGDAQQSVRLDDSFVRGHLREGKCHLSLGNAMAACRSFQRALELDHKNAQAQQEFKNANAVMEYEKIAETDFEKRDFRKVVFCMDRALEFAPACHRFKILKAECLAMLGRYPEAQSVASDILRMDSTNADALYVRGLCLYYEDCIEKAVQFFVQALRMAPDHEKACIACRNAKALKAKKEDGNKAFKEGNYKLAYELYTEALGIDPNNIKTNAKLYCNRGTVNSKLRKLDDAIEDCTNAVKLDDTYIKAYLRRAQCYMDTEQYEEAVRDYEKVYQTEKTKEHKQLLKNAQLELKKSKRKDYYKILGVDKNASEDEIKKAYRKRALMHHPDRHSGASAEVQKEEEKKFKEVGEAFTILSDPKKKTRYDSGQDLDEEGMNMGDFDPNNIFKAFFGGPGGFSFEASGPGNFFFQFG

DNAJB1 = target: T2, DNAJB1 (human, UniProt P25685 1-340); assay: as above
T2 construct: DNAJB1, human, cDNA cloned into pET28a (GenScript); also called HSP40 (class B JDP)
T2 sequence (P25685 whole entry): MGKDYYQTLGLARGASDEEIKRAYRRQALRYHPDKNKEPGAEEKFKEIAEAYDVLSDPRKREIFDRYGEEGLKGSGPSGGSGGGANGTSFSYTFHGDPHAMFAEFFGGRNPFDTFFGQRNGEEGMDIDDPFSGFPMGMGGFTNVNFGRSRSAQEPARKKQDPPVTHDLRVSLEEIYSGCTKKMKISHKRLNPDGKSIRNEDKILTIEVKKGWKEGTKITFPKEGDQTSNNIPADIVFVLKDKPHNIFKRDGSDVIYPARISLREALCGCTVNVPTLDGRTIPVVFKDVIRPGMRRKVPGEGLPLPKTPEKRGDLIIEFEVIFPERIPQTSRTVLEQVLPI

DNAJB4 = target: T3, DNAJB4 (human, UniProt Q9UDY4 1-337); assay: as above
T3 construct: DNAJB4, human, cDNA cloned into pET28a (GenScript); also called HSP40 (class B JDP)
T3 sequence (Q9UDY4 whole entry): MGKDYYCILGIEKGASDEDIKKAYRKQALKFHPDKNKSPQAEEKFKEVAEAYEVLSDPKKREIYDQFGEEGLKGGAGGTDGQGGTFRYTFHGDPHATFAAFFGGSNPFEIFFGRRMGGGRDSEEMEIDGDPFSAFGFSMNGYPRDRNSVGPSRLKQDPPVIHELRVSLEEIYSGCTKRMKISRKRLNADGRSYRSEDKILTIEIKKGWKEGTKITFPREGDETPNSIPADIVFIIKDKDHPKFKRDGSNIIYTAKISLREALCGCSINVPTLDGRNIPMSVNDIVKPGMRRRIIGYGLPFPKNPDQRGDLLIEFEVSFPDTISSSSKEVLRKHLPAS

DNAJA2 = target: T4, DNAJA2 (human, UniProt O60884 1-412); assay: NMR titration; 15N-HSQC at 15 °C, 800 MHz; 25–35 μM 15N/13C-labelled PLD in NMR buffer with 10 mM DTT (5 mM ZnCl2 for DNAJA2); unlabelled JDP co-chaperones added; signal intensity decay shown at 1:2 molar ratio
T4 construct: DNAJA2, human, cDNA cloned into pET28a (GenScript); 5 mM ZnCl2 and 10 mM DTT were added to its NMR samples; also called HSP40 (class A JDP)
T4 sequence (O60884 whole entry): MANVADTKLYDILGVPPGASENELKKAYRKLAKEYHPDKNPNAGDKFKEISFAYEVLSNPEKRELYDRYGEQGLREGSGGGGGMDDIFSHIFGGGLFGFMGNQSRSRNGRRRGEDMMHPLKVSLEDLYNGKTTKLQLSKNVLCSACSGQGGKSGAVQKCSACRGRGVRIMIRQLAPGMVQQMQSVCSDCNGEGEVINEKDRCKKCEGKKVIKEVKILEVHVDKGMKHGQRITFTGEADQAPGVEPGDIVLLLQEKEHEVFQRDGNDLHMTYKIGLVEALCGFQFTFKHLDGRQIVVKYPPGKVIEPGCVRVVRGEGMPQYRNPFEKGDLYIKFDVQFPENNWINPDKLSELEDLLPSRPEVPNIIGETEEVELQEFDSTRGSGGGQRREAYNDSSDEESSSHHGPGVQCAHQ

Measured: binding result

B1: TDP-43 prion-like domain (fragment 274-414 of human TDP-43) (domain or fragment, UniProt Q13148 274-414, looked up)
chain: GRFGGNPGGFGNQGGFGNSRGGGAGLGNNQGSNMGGGMNFGAFSINPAMMAAAQAALQSSWGMMGMLASQQNQSGPSGNNQNQGNMQREPNQAFGSGNNSYSGSNSGAAIGWGSASNAGSGSGFNGGFGSSMDSKSSGWGM
notes: TDP-43, human, UniProt Q13148, C-terminal prion-like domain, residues 274-414; 15N/13C-labelled for the NMR experiments; also called PLD; TDP-43 PLD; not shown: Thioredoxin (TXA), N-terminal, cleaved; His6, N-terminal, cleaved
binds: all assays above
